Binding result and Kd data for seven molecules are collected here from article PMC4942675 (Molecular Cell, 2016).

Like-named read-outs stand apart in the source and are kept apart here.

The target in experiment [1] is T1, Rrp43 (subunit of Exo10 in the crystal structure) (S. cerevisiae, UniProt P25359).
T1 sequence: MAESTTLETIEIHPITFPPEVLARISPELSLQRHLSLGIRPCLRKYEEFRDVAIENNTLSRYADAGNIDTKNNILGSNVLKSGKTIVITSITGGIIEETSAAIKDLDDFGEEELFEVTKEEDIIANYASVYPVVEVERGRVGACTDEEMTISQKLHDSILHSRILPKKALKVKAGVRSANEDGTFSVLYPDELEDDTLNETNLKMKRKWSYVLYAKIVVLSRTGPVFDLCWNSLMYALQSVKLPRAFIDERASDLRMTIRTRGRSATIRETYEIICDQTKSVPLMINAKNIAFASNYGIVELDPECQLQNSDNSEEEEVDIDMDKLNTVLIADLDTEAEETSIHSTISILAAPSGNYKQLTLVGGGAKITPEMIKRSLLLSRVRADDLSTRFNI
Description: crystal structure.

For experiment [2], the target named is T2, S. cerevisiae Exo9 (nine-subunit exosome core, no Rrp44 subunit) (S. cerevisiae, UniProt P46948;Q05636;P53256;P25359;P48240;Q12277;P38792;Q08285;P53859). The experiment in a line: MST.
For experiment [3], the target named is T2, S. cerevisiae Exo9 (nine-subunit …). The experiment in a line: pull-down.
Experiment [4] has the same target. Description: pull-down. This is another data set of the same source.

B1: Mtr3 (subunit of Exo10 in the crystal structure) (natural protein)
chain: MNVQDRRRLLGPAAAKPMAFSNTTTHVPEKKSTDLTPKGNESEQELSLHTGFIENCNGSALVEARSLGHQTSLITAVYGPRSIRGSFTSQGTISIQLKNGLLEKYNTNELKEVSSFLMGIFNSVVNLSRYPKSGIDIFVYLTYDKDLTNNPQDDDSQSKMMSSQISSLIPHCITSITLALADAGIELVDMAGAGEANGTVVSFIKNGEEIVGFWKDDGDDEDLLECLDRCKEQYNRYRDLMISCLMNQET
Consider B1, for which, in experiment [1], the binding result is listed as “binds”.

B2: GFP-Ski7_(exomut-1) (Trp125Asp, Ile128Asp) (domain or fragment)
chain: DDKLNLEESDKADKEMNHYCFLKNDPCINQTDDFAFTNFIIKDKKNSLSTSIPLSSQNSSFLSLKKHNNELLGIFVPCNLPKTTRKVAIENFNRPSPDDIIQSAQLNAFN
In experiment [2], B2 gave a Kd of 50 nM.

B3: GFP-tagged Ski7exo (domain or fragment)
chain: DDKLNLEESWKAIKEMNHYCFLKNDPCINQTDDFAFTNFIIKDKKNSLSTSIPLSSQNSSFLSLKKHNNELLGIFVPCNLPKTTRKVAIENFNRPSPDDIIQSAQLNAFN
B3: the dissociation constant Kd in experiment [2] was around 5 nM.

B4: GFP-tagged Rrp6exo (GFP-Sumo-Rrp6C, Rrp6 residues 518-693) (domain or fragment)
chain: EATPIPSSETKADGILLETISVPQIRDVMERFSVLCNSNISKSRAKPVTNSSILLGKILPREEHDIAYSKDGLPNKVKTEDIRIRAQNFKSALANLEDIIFEIEKPLVVPVKLEEIKTVDPASAPNHSPEIDNLDDLVVLKKKNIQKKQPAKEKGVTEKDAVDYSKIPNILSNKPG
Regarding B4, the Kd in experiment [2] is around 10 nM.

B5: GFP-Ski7_(exomut-2) (Phe149Asp, Phe151Asp, Phe154Asp) (domain or fragment)
chain: DDKLNLEESWKAIKEMNHYCFLKNDPCINQTDDDADTNDIIKDKKNSLSTSIPLSSQNSSFLSLKKHNNELLGIFVPCNLPKTTRKVAIENFNRPSPDDIIQSAQLNAFN
Regarding B5, in experiment [3], the binding result was “binds”.

B6: GFP-Ski7_(exomut-3) (Ile189Asp, Phe190Asp) (domain or fragment)
chain: DDKLNLEESWKAIKEMNHYCFLKNDPCINQTDDFAFTNFIIKDKKNSLSTSIPLSSQNSSFLSLKKHNNELLGDDVPCNLPKTTRKVAIENFNRPSPDDIIQSAQLNAFN
Turning to B6, the binding result in experiment [3] is “binds”.

B7: Ski7 residues 116-235 (Exo9-interacting domain) (domain or fragment)
chain: DDKLNLEESWKAIKEMNHYCFLKNDPCINQTDDFAFTNFIIKDKKNSLSTSIPLSSQNSSFLSLKKHNNELLGIFVPCNLPKTTRKVAIENFNRPSPDDIIQSAQLNAFNEKLENLNIKS
With B7, the binding result in experiment [4] is given as “binds”.
